# Data taken from patent US20110086364A1 (TEKNOLOGIAN TUTKIMUSKESKUS VTT, published 2011).
# Target: T1, immune complex of anti-THC T3 Fab and THC (tetrahydrocannabinol)
# T1 construct: the target is the Fab-hapten complex; The Fab was labeled with europium (LANCE Eu-W1024 ITC chelate) for TR-FRET and biotinylated for phage selection; also called T3+THC complex; T3+THC immune complex
# Test: homogeneous TR-FRET in saliva: Eu-labeled T3 Fab, Alexa Fluor 647-labeled Fab 104, spiked THC
# Procedure: 40 μl saliva samples spiked with 0, 3.75, 7.5, 15, 30, 60 and 120 ng/ml of the following drugs: D9-THC, 11-OH-D9-THC, 11-nor-D9-THC-COOH, heroin and amphetamine were added to the wells. After short mixing, the time resolved fluorescence resonance energy transfer (TR-FRET) was measured by Victor V fluorometer (Perkin Elmer Wallac).
# T1 sequence (VH, as listed by the source, chain 1 of 2): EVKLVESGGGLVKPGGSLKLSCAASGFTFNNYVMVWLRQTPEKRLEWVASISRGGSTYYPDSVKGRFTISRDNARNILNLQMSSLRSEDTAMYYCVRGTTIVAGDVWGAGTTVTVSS
# T1 sequence (VL, as listed by the source, chain 2 of 2): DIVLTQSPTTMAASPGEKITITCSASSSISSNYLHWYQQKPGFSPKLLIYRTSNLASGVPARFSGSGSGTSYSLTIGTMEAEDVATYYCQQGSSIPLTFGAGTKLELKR
binder,measurement,value
"anti-T3+THC immune complex Fab 104 (Fab, V domains shown, Labeled with Alexa Fluor 647 for the TR-FRET assay) VH: QVQLVQSGTEVKKPGATVKISCKFSGDNFIDYYMHWVKQAQGKGLEWLGLVDLGDGQTIYAEKFHGRGTITADSSRDTAYMELSSLRSEDTAVYYCAAAKAYRQGVMDVWGQGTLVTVSS VL: NFMLTQPHSVSESPGKTVTISCTGSSGSIASNYVQWYQQRPGSAPTTVIYEDNQRPSGVPDRFSGSIDSSSNSASLTISGLKTEDEADYYCQSYDSSNQVFGGGTKLTVLG",binding result,binds
